In patent publication US6177557:

Legend:
thrombin (alpha) (human) = thrombin (alpha) (human) (UniProt P00734+P00734); experiment: filter
[1] = target: basic fibroblast growth factor (bFGF) (UniProt P09038); experiment: filter
[2] = bulk pool, text also says after 12 rounds, apparently unselected

Sequence of basic fibroblast growth factor (bFGF) (P09038 135-288): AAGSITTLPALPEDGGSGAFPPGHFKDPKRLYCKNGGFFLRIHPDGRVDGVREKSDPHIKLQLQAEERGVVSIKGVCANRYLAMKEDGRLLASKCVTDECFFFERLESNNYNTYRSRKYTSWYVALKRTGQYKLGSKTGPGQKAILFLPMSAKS

“AGATGCCTGTCGAGCATGCTNGTAGCTAAACTGCTTTGTCGACGGG [60N DNA pool after SELEX]” was tested, and the Kd (thrombin (alpha) (human); pool after 12 rounds) was 8 nM.
With “AGATGCCTGTCGAGCATGCTNGTAGCTAAACTGCTTTGTCGACGGG [bulk 30N DNA]” the Kd (thrombin (alpha) (human); [2]) was 8000 nM.
“GGGAGACAAGAAUAACGCUCAANNNNNNNNNNNNNNNNNNNNNNNNNNNNNNUUCGACAGGAGGCUCACAACAGGC [2'-NH2 starting random RNA A]” gave a Kd ([1]; 2'-NH2 pyrimidines, unselected pool, +/-11) of 65 nM.
For “GGGAGGACGAUGCGGNNNNNNNNNNNNNNNNNNNNNNNNNNNNNNNNNNNNNNNNNNNNNNNNNNCAGACGACUCGCCCGA [2'-NH2 starting random RNA B]”, the Kd ([1]; 2'-NH2 pyrimidines, unselected pool, +/-140) was 240 nM.
“GGGAGGACGATGCGGNCAGACGACGACGGGGA [DNA random pool 30N7.1PS (round 0)]” gave a Kd ([1]; round 0 pool) of 300 nM.
Sequence “GGGAGGACGATGCGGGGGGCTATGCGATACAGTCGCGNTANGCTAGGCGCAGACGAGCGGGA [m26]” has a Kd ([1]; PBS) of 1.6 nM.
“AGATGCCTGTCGAGCATGCTNGTAGCTAAACTGCTTTGTCGACGGG [30N DNA pool after SELEX]” showed a Kd (thrombin (alpha) (human); pool after 12 rounds) of 8 nM.
With “GGGAGGACGATGCGGNCAGACGACGACGGGGA [DNA SELEX pool Experiment 3 round 10]” the Kd ([1]; round 10 pool) was 2.5 nM.
“GGGAGAUGCCUGUCGAGCAUGCUGNNNNNNNNNNNNNNNNNNNNNNNNNNNNNNGUAGCUAAACAGCUUUGUCGACGGG [random RNA B (unmodified)]” showed a Kd ([1]; unselected pool, PBS, 37 C) of 560 nM.
Work on “AGATGCCTGTCGAGCATGCTNGTAGCTAAACTGCTTTGTCGACGGG [bulk 60N DNA]” yielded a Kd (thrombin (alpha) (human); [2]) of 5000 nM.
Work on “GGGAGCUCAGAAUAAACGCUCAANNNNNNNNNNNNNNNNNNNNNNNNNNNNNNUUCGACAUGAGGCCCGGAUCCGGC [random RNA A (unmodified)]” yielded a Kd ([1]; unselected pool, PBS, 37 C) of 300 nM.
“GGGAGGACGATGCGGNCAGACGACGACGGGGA [DNA SELEX pool Experiment 3 round 11]” was tested, and the Kd ([1]; round 11 pool) was 4 nM.
